Target: T1, endogenous LRRK2 (Mus musculus, UniProt Q5S006)
T1 construct: endogenous in cells; host or cells: RAW264.7
Assay: Colocalization of GFP-Nbs with endogenous LRRK2 on zymosan-containing phagosomes in RAW264.7 cells
Assay type: cell-based
Details: RAW264.7 cells transfected with GFP-Nbs, zymosan 30 mins, fixed cells
Description: RAW264.7 cells were transfected with GFP-fused Nbs and treated with Zymosan for 30 mins. Recruitment of LRRK2 and Nbs to the phagosomes was analyzed by immunofluorescence. FIG. 16A, images for Nb38, Nb22, Nb23, Nb40, No Nb, or Irrelevant (IRR) Nb treatments; FIG. 16B, images for Nb36, Nb42, Nb17, Nb39, Nb1, and Nb6 treatments. Scale bar=10 μm.
To test whether Nbs can trace and visualize endogenous LRRK2 in fixed cells, we generated green fluorescent protein (GFP)-Nb fusions (fluobodies) as described before. Recently, it was shown that LRRK2 is recruited to phagosomes upon induction of phagocytosis in immune cells. Therefore, RAW264.7 cells were transfected with these fluobodies and treated with killed yeast bioparticles “zymosan” to induce phagocytosis.
RAW264.7 cells (ATCC® SC-6003™) were transfected with peGFP-Nb constructs using JetOPTIMUS (Polyplus transfection) for 24 hrs and then stimulated with Zymosan particles (Sigma Aldrich) for 30 mins ([…]). Immunostaining for LRRK2 was performed as reported before. Briefly, cells fixed with 4% (w/v) paraformaldehyde for 30 min, followed by treatment with 100% EtOH at −20° C. Sampled were permeabilized with PBS/0.5% Triton X-100 and blocked with 3% BSA. Primary antibodies (rabbit anti-LRRK2, c41-2, Abcam and mouse anti-GFP, G6539, Sigma Aldrich) were diluted in PBS containing 3% BSA and 0.5% Triton X-100 and incubated overnight at 4° C. After three 5-min washes with PBS, secondary fluorescently labeled antibodies (anti-rabbit-Alexa fluor 568 and anti-mouse-Alexa fluor 488, Invitrogen) were added in a similar manner to primary antibodies and incubated for 1 hour at room temperature. Cells were washed twice with 1×PBS and mounted with Fluroshield antifade reagent with DAPI (SigmaAldrich). Images were acquired on Zeiss LSM800 confocal laser scanning microscope. Image analysis of z-scan was done using the Zeiss microscope software ZEN.

T1 sequence (Q5S006 whole entry): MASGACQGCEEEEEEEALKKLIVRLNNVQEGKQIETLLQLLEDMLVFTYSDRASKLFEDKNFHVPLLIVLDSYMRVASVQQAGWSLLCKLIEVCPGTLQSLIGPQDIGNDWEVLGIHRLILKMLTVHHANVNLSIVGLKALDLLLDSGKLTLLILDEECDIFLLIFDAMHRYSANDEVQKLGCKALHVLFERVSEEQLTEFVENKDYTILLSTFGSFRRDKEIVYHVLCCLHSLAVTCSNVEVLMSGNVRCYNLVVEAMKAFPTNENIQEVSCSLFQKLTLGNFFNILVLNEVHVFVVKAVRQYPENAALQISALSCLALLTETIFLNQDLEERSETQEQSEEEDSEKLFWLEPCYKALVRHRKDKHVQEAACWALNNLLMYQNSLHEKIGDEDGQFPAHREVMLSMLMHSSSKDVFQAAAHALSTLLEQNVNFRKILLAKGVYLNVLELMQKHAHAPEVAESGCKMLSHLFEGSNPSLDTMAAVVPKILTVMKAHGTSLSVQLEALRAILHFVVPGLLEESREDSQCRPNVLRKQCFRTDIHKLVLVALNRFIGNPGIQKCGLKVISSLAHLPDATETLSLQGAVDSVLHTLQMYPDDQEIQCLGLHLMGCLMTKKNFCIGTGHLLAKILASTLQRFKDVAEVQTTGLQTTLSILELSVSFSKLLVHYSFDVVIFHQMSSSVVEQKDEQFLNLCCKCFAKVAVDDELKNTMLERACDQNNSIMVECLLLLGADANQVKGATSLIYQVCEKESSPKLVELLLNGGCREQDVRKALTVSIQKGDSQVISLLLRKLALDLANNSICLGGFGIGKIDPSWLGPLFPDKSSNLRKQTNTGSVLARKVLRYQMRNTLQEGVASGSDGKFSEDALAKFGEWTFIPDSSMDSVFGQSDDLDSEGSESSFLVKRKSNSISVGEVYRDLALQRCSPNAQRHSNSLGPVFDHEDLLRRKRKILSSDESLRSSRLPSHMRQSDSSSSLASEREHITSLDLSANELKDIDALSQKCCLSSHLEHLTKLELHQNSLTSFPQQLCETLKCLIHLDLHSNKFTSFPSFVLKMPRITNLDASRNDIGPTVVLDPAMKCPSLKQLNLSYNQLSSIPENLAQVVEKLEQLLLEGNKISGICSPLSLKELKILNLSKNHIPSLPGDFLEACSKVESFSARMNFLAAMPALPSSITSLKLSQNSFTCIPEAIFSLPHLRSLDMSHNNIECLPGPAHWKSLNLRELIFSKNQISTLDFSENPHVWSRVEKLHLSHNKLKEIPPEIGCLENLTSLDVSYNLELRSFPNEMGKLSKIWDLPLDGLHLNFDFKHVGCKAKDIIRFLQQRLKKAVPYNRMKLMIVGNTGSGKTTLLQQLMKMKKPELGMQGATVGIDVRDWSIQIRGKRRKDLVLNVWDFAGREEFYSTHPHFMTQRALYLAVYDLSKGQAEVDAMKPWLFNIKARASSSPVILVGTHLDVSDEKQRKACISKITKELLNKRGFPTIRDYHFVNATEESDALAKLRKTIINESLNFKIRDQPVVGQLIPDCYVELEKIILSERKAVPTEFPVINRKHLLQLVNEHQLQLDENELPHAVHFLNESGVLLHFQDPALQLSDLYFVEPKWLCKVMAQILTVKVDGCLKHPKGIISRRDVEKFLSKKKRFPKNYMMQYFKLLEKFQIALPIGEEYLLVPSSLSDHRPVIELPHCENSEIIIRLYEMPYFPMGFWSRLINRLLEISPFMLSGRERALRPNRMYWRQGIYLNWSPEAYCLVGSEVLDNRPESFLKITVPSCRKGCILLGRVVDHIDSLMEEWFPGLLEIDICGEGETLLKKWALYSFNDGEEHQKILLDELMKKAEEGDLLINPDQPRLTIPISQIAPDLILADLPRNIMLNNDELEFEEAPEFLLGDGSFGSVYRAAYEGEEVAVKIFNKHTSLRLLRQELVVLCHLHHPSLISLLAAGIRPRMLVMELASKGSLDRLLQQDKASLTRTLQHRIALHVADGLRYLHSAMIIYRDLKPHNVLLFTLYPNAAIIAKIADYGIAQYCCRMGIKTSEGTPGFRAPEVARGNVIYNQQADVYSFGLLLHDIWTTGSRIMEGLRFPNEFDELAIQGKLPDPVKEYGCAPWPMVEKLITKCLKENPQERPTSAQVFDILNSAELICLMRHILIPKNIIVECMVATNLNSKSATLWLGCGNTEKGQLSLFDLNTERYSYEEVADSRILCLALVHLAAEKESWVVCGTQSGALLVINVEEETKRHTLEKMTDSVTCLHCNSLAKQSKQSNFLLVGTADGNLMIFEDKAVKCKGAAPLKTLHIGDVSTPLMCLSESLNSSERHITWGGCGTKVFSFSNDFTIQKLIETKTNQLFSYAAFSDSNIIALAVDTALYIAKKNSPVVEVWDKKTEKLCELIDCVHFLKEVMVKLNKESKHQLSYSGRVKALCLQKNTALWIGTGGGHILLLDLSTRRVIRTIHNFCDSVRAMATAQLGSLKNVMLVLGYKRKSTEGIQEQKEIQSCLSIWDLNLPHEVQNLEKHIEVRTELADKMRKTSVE

Row | Molecule | colocalization with endogenous LRRK2 on phagosomes
1 | Nb22: LRRK2-specific Nanobody, SEQ ID NO: 9 (protein, Nanobody CA13611) VHH: MAQVQLVESGGGLVQAGGSLRLSCAASGRTFSSYTMGWFRQAPGKEREFVAAIRWSGGSTYYADSVKGRFTISRDNAKNTVYLQMNSLKPEDTAVYYCAASDRGGFIATSGGWMDYWGKGTQVTVSS | clearly colocalized with LRRK2 on zymosan-containing phagosomes
2 | Nb6: LRRK2-specific Nanobody, SEQ ID NO: 2 (protein, Nanobody CA12618) VHH: MAQVQLVESGGGLVQAGGSLRLSCAASGSIFSPTAMGWYRQAPGKERELVAGITSGGYTNYRNFARGRFTISRDNAKKTVYLQMNSLNPEDTAVYYCNTLTISWSWGQGTQVTVSS | LRRK2 recruitment to phagosomes was slightly detectable
3 | Nb1: LRRK2-specific Nanobody, SEQ ID NO: 1 (protein, Nanobody CA12610) VHH: MAQVQLVESGGGLVQAGGSLRLSCVASGRIFSGNAMGWYRQAPGRQRELVAGITNGGYTNYRQFVKGRFTISRDNAKRTVYLQMNSLKPEDTAVYYCNALDREARQVDYWGQGTQVTVSS | LRRK2 recruitment to phagosomes was slightly detectable
4 | Nb23: LRRK2-specific Nanobody, SEQ ID NO: 3 (protein, Nanobody CA13612) VHH: MAQVQLVESGGGLVQAGGSLRLSCAASGRTFSRYTMGWFRQAPGKDREFVARITTSGAVTTYADSAKGRFTISRDNAKNTVYLQMNTLKPEDTAVYYCAAGQGQLSSQSRFVDYWGQGTQVTVSS | clearly colocalized with LRRK2 on zymosan-containing phagosomes
5 | Nb42: LRRK2-specific Nanobody, SEQ ID NO: 6 (protein, Nanobody CA14259) VHH: MAQVQLVESGGGLVQAGGSLRLSCAASGDVNYAVGWFRQAPRKEREFVAAINWRGDNTDYTDSVKGRFTISRDNAKNTVYLQMNSLKPEDTAVYYCAAKSAPYWYSDIAPDYWGQGTQVTVSS | did not colocalize with endogenous LRRK2

Source: patent publication US20230087785A1, “Leucine-Rich Repeat Kinase 2 Allosteric Modulators” (VIB VZW, priority 2020, published 2023)
